Assay: yeast display, Sf9 membrane polyspecificity reagent, FACS + sequencing; frameworks hold sequencing errors
Procedure, shortened: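 Galactose-induced (36–48 hours) yeast carrying a synthetic nanobody display library were exposed to 10% biotinylated, detergent-solubilized Sf9 membrane reagent at 4 °C for 1 hour. FACS followed streptavidin microbead enrichment, using low and high (top ~1%) gates for expression (anti-HA) and reagent binding (streptavidin). Colony PCR, MiSeq 2 × 250 sequencing and CDR-length filtering followed. Labels for polyreactivity reflect the gate of origin.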

Sequence | polyreactivity (PSR sort gate)
QVQLVESGGGLVQAGGSLRLSCAASGSTFGYYAMRWSRQAPGKERELVAAISGSGGSTYYADSVKGRFTISRDNAKNTVYLQMNSLKQEDTAVYYCATSWAGSEYYYWGQGTQVTVSS | high polyreactivity
QVQLVESGGGLVQAGGSLRLSCAASGSTFGYYTMGWYRQAHGKERELVAAISWGCGSTYYADSVKGRFTISRDNAKNTVYLQMNSLIPEDTAVYYCARTPVTSYKDDFYYWGQGTQVTVSS | low polyreactivity
QVQLVESGGGLVQAGGSLRLSCAASGSTFGYYTMGWYRQAPGKERELVAAISWSGGSTYYADSVKGRFTISRDNAKNTVYLQMNSLKPEDTAVYYCAALGYTYKYYSYYWGQGTQVTVSS | high polyreactivity
QVQLVESGGGLVQAGGSLRLSCAASGSTFGYYTMGWYRQAPGKERELVAAITWSGGSTYYADSVKGRFTISRDNAKNTVYLQMNSLKPEDTAVYYCADDDYWTPFGYWGQGTQVTVSS | low polyreactivity
QVQLVESGGGLVQAGGSLRLSCAASGSTFGYYTMGWYRQAPGKERELVASIDVSGDSTSYADSVKGRFTISRDNAKNTVYVQMNSLKPEDTAVYYCNTGRYPTSPTHNYWGQGTHVTVSS | low polyreactivity
QVQLVESGGGLVQAGGSLRLSCAASGSTFHGYTIGWSRQAPGKERELVAAISSRGTSTYYADSVKGRFTISRDNAMNTVYLQMNSLKTEDTAVYYCATRGWDKYWGQGTQVTVSS | high polyreactivity
QVQLVESGGGLVQAGGSLRLSCAASGSTFHLYAMGWNRQAPGKEREFVAAIRGRGGNTYADSVKGRFTISRDNAKNSGYLQMNSLKPEDTAVYYCAARTHYDSDYWGQGTQVTVSS | low polyreactivity
QVQLVESGGGLVQAGGSLRLSCAASGSTFHLYAMGWYRQAPGKEREFVAAIRGRGGNTYADSVKGRFTISRDNAKNTVYLQMHSLKPEDTAVYYCAAPLLRDLRSPYSYNYWGQGTQVTVSS | low polyreactivity
QVQLVESGGGLVQAGGSLRLSCAASGSTFHPNGMGWYRQAPGQEREFVAAIRRSGGSTYYADSVKGRFTISRDNAKNTVYLQMNSLKPEDTAVYYCAAKHYYYSPYVRYDPPPGYYWGQGTQVTVSS | high polyreactivity
QVQLVESGGGLVQAGGSLRLSCAASGSTFHRNSMGWYRQAPGKERELVASISIGGSTNYADSVKGRFTISRDNAKNTVYLQMNSLKPEDTAVYYCATEPNPRRPRVDYDYWGQGTQVTVSS | low polyreactivity
QVQLVESGGGLVQAGGSLRLSCAASGSTFHRYTMGWYRQAPGKEWELVAAISWSGGSTYYADSVKGRFTISRDNAKNTVYLQMNSLKPEDTAVYYCAAVKPAEALDYWGQGTQVTVSS | high polyreactivity
QVQLVESGGGLVQAGGSLRLSCAASGSTFHSYAIGWYRQAPGKEREFVAAITIRGGSTYYADSVKGRITISRDNAKNTVYLQMNSLKPEDNAVYYCAALVWGSYARWRYYCGQGTQVTVSS | high polyreactivity
QVQLVESGGGLVQAGGSLRLSCAASGSTFHVNAMGWYRQAPGKEREFVAAISWRTGSTYYADSVKGRFTISRDNAKNTVYLQRHSLKPEDTAVYYCAAKRSYSNYDYWGQGTQVTVSS | high polyreactivity
QVQLVESGGGLVQAGGSLRLSCAASGSTFHYYAMGWYRQAPGKERELVAAITRGGNTYYADSVKGRFTISRGNAKNTVYLQMNSLKPEDTAVYYCAKDNLFEAYRYDYWGQGTQVTVSS | low polyreactivity
QVQLVESGGGLVQAGGSLRLSCAASGSTFICKAMGWYRQAPGKERELVAAIDYRGGNTYYADSVKGRFTISRDYAKNSVYLHMNSLKPEHTAVYYCAARVVGYEYFYDYYYWGQGTQVTLSS | low polyreactivity
QVQLVESGGGLVQAGGSLRLSCAASGSTFIFNAMGWYRQAPGKERELVAGISSGSTYYADSVKGRFTISRDNAKNTVYLQMNSLIPEDTAVYSCATKLRRWRFYAAYDYWGQGTQVTVSS | high polyreactivity
QVQLVESGGGLVQAGGSLRLSCAASGSTFIFNAMGWYRQAPGKEWELVAGISSGSTYYADSVKGRFTISRDNAKNTVYLQMNSLKPEDTAVYYCATKLRRWRFYAAYDYWGQGTQVTVSS | high polyreactivity
QVQLVESGGGLVQAGGSLRLSCAASGSTFIFYSMGCYRQAPGKERELVASITSSSGPTYYADSVKGRFTISRDNAKNTVYLQMNSLKPEDTAVYYCAKRPIRYYHLLRGNYWGQGTQVTVSS | low polyreactivity
QVQLVESGGGLVQAGGSLRLSCAASGSTFIGNAMGWYRQAPGKERELVAAITSSGGSTYYADSVKGRFTISRDNAKNTVYLQMNSLKPEDTAVYYCAAKSRRTRRSYYWGQGTQVTVSS | high polyreactivity
QVQLVESGGGLVQAGGSLRLSCAASGSTFIGYAMGWYRKAPGKERELVAAITGGGRTNYADSVKGRFTISRDNAKNTVYLQMNSLKPEDTAVYYCAARGVTRGYAKPYYSRGDYWGQGTQVTVSS | low polyreactivity

Sequence | polyreactivity (PSR sort gate)
QVQLVESGGGLVQAGGSLRLSCAASGSTFIGYAMGWYRQAPGKERELVASISWGGGSTYYADSVKGRFTISRDNAKNTVYLQMNSLKPEDTAVYYCATDGRTYIDFYWGQGTQVTVSS | low polyreactivity
QVQLVESGGGLVQAGGSLRLSCAASGSTFIGYAMGWYRQAPGKEWELVAAISWSGGRTYYADSVKGRFTISRDNEKNTVYLQMNSLKPEDTAVYYCAASYYGCSARYDTLGIYEYWGLGTQVTVSS | high polyreactivity
QVQLVESGGGLVQAGGSLRLSCAASGSTFIHNAMGWYRQAPGKERELVAAITSGGSTYYADSVKGRFTISRDNAKNTVYLQMTSLKPEDTAVYYCNAGRGTRFVYIDGMDYWGQGTQVTVSS | high polyreactivity
QVQLVESGGGLVQAGGSLRLSCAASGSTFILNAMGWYRQAPGKERELVATISSSDTSTYYADSVKGRFTISRDNANNTVYLQMNSLKPEDTAVYYCNADYYTTSYLQRVYHYGVEYDYWGQGTQVTVSS | low polyreactivity
QVQLVESGGGLVQAGGSLRLSCAASGSTFILYAMGWYRQAPGKERELVAAISSDGSTYYADSVKGRFTISRDNAKNTVYLQMNSLKPEDTAVYYCAADSDTFYYTGYDYDYWGQGTQVTVSS | low polyreactivity
QVQLVESGGGLVQAGGSLRLSCAASGSTFIPYAMGWYRQAPGKERELVAAIRGGDGSTYYADSVKGRFTISRDNAKNTVYLQMNSLKPEDTAVYYCAADTVITAYFYRFWRYNYWGQGTQVTVSS | low polyreactivity
QVQLVESGGGLVQAGGSLRLSCAASGSTFIRYAMGWYRQAPGKERELVAAISSGGGNTYYADSVKGRFTISRDNAKNTVYLQMDSLKPEDTAVYYCAARYLAYGPTGYLYGYNYWGQGTQVTVSS | high polyreactivity
QVQLVESGGGLVQAGGSLRLSCAASGSTFISNDMGWYRQAPGKEREFVAAITASGGSTYYADSVKGRFTISRDYAKNTVYLQMNSLKPEDTAVYYCARVYTFLDVYFRYGYWGQGTQVTVSS | low polyreactivity
QVQLVESGGGLVQAGGSLRLSCAASGSTFISYAMGWYRQAPGKERELVAAISYRGGSTRYADSVKGRFTISRDNAKNTVYLQMNSLKPEDTAVYYCAAYTRKSHIREYDYWGQGTQVTVSS | high polyreactivity
QVQLVESGGGLVQAGGSLRLSCAASGSTFITYVMGWYRQAPGKERELVAAISRSGGTTYYADSVKGRFTISRDNAKNTVYLQMNCLKPEDTAVYYCAARIGGQVQKTARGSWGQGTQVTVSS | high polyreactivity
QVQLVESGGGLVQAGGSLRLSCAASGSTFIVNALGGYRQAPGHEREFVAAIRWSGGSTYYADSVKGRFTISRDNAKNTVYFQMNSLKPDDTAVYYCNARSYQSARFRGGYWGQGTQVTVSS | high polyreactivity
QVQLVESGGGLVQAGGSLRLSCAASGSTFIVNAMGWYRQAPGKERELVAAITGGGGSTYYADSVKGRFTISRDNAKNTVYLQMNSLKPEDTAVDYCAARIQYAFGADYYWGQGTQVTVSS | low polyreactivity
QVQLVESGGGLVQAGGSLRLSCAASGSTFIVYAMGWYRQAPGKERELVAAIRGRGGSTYYADSVKGRFTISRDNAKNTVYLQMNSLKPEDTAVYYCAARGISPQEMYYWGQGTQVTVSS | high polyreactivity
QVQLVESGGGLVQAGGSLRLSCAASGSTFIWYDMGWYRQAPGKERELVATIDGNDGSTYYADSVKGRFTISRDNAKNTVYLQMNSLKPEDTAVYYCAKRSTGRLQSYNYWGQGTQVTVSS | low polyreactivity
QVQLVESGGGLVQAGGSLRLSCAASGSTFIYNTMGSYRQAPGKERELVAAISGSGGRTYYADSVKGRFTISRDNAKNTVYLQMNSLKPEDTAVYYCAARYYTKLYWGQGTQVTVSS | high polyreactivity
QVQLVESGGGLVQAGGSLRLSCAASGSTFIYYAMGWYRQAPGKERELVAGISIRGGSTYADSVKGRFTISRDNAKNTVYLQKNSLKPEDTAVYFCNAYKRIKANGYAIRYYYWGQGTQVTVSS | high polyreactivity
QVQLVESGGGLVQAGGSLRLSCAASGSTFKAYAMGWYRQAPGKERELVAAITKSGGRTYYADSVKGRFTLSRDNAKNTVYLQMNSLKPEDTAVYYCNAAAYVWKSKQRLYVITYDYWGQGTQVTVSS | high polyreactivity
QVQLVESGGGLVQAGGSLRLSCAASGSTFKAYAMGWYRQAPGKERELVAAITYNGGSTYYADSVKGRFTISRDNEKNTVYLQMNSLKPEDTAVYYCAKRETGRRDPRRSTQYRYEYWGQGTQVTVSS | low polyreactivity
QVQLVESGGGLVQAGGSLRLSCAASGSTFKAYVMGWYRQEPAKERELVAVISRSGGTTYYADSVKGRFTISRDNAKNTVYLQMNSLKPEDTAVYYCAAQWRYQYPESLESYYWGQGTQGTVSS | high polyreactivity
QVQLVESGGGLVQAGGSLRLSCAASGSTFKEYTMGWYRQAPAKERELVAASSKSGDSTYYADSVKGRFTISRDNAKNTVYLQMNSLKPEDTAVYYCNKPTWYTIYDYWGQGTQVTVSS | low polyreactivity
